Experiments:
Mouse SLIT2-N = biological target: T1, Mouse SLIT2-N (mouse, UniProt Q9R1B9 26-1113, limits assumed); assay: HTRF competition: d2-labelled mouse SLIT2-N binding to human ROBO2 on HEK293 cells; geometric mean, n=3
T1 construct: domain: SLIT2-N; d2-labelled in the HTRF assay
T1 sequence (looked up): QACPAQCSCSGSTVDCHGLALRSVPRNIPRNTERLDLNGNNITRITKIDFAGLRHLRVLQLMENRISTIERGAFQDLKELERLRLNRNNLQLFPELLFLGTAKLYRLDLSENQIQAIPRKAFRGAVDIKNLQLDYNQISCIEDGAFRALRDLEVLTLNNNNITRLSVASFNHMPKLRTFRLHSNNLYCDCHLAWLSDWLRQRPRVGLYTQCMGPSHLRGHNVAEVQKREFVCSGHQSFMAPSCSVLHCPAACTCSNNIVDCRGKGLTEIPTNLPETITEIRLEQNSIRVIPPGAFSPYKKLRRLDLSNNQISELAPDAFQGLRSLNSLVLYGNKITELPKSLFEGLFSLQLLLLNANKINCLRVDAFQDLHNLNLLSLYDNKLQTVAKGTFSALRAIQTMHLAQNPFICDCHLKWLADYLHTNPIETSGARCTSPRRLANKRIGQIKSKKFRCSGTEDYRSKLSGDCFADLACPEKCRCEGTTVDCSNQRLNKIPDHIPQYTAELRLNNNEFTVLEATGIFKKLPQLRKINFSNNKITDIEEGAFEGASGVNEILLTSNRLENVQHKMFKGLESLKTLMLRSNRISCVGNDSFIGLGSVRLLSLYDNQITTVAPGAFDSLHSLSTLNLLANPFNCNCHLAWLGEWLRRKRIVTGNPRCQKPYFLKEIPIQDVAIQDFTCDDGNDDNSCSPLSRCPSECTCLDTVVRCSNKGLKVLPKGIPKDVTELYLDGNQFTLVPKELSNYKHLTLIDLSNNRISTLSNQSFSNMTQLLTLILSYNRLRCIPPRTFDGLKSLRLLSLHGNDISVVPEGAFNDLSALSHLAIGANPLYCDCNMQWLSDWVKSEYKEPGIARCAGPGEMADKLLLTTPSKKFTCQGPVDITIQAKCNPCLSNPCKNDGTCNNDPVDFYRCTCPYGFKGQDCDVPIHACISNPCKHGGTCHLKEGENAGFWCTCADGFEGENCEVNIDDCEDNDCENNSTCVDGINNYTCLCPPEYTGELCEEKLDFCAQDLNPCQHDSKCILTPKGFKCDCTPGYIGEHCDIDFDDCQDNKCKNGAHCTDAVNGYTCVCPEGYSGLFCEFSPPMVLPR
Description: (§1) After incubation, fluorescence at 665 nm and 620 nm was measured on an Envision multilabel plate reader. The HTRF Ratio was calculated as follows: fluorescence at 665 nm/fluorescence at 620 nm×10,000. […] The IC₅₀ for each SLITx-N was determined using an 11-point, 4-fold dilution series with a top concentration of 4000 nM.

Rat SLIT2-N = biological target: T2, Rat SLIT2-N (rat, UniProt Q9WVC1 31-766, limits assumed); assay: HTRF competition: d2-labelled rat SLIT2-N binding to human ROBO2 on HEK293 cells (competitor: cell surface ROBO2)
T2 construct: domain: SLIT2-N (N terminal fragment)
T2 sequence (looked up): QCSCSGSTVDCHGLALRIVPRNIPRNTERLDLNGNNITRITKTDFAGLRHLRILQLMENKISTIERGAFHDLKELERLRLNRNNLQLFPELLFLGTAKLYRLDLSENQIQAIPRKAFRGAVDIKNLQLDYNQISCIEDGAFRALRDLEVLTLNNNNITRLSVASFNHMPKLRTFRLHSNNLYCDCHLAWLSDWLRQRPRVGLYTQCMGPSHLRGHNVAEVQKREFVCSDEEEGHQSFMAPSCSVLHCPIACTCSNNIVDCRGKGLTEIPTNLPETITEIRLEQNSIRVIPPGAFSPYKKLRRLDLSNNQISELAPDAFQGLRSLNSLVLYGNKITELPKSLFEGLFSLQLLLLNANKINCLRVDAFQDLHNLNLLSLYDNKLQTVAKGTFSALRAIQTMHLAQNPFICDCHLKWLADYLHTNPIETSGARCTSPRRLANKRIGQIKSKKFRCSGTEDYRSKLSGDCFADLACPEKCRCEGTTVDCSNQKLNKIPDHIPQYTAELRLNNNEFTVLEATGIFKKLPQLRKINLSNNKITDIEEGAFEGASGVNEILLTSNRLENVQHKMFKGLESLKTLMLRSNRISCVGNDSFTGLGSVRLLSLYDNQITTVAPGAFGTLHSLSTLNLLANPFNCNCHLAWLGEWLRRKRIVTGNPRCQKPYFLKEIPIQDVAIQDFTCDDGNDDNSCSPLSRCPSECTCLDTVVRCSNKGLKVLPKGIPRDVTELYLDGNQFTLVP
Description: as §1

IC50 (Mouse SLIT2-N): 5.4 nM | IC50 (Rat SLIT2-N): 4 nM
B1: ROBO2-Fc 2.2 (Fc fusion)
chain: SRLRQEDFPPRIVEHPSDVIVSKGEPTTLNCKAEGRPTPTIEWYKDGERVETDKDDPRSHRMLLPSGSLFFLRIVHGRRSKPDEGSYVCVARNYLGEAVSRNASLEVALLRDDFRQNPTDVVVAAGEPAILECQPPRGHPEPTIYWKKDKVRIDDKEERISIRGGKLMISNTRKSDAGMYTCVGTNMVGERDSDPAELTVFERGGSGGSEPKSSDKTHTCPPCPAPEAAGAPSVFLFPPKPKDTLMISRTPEVTCVVVDVSHEDPEVKFNWYVDGVEVHNAKTKPREEQYNSTYRVVSVLTVLHQDWLNGKEYKCKVSNKALPAPIEKTISKAKGQPREPQVYTLPPSREEMTKNQVSLTCLVKGFYPSDIAVEWESNGQPENNYKTTPPVLDSDGSFFLYSKLTVDKSRWQQGNVFSCSVMHEALHNHYTQKSLSLSPG
notes: Labelled with Alexa Fluor 647 in the flow cytometry assay; also called ROBO-Fc 2.2; ROBO2-Fc 2.2-AF647

From US20210214414A1 (Pfizer, published 2021)
